We go through one molecule from patent US11111484B2, “Streptococcus bacteriophage lysins for detection and treatment of gram positive bacteria” (priority 2011, dated 2021).

The series concerns S. suis strain 7711. As to the kind of experiment: ΔPlySs1 biochemical characterization, turbidity reduction (OD600). Format: cell-based, Streptococcus suis. The settings on record: for activity after 6 hours at 40° C. / activity after 6 hours at 45° C.: 6-hr incubation; for pH of maximal activity in bis-tris-propane: BTP 40 mM, pH 7.0-9.7, 110 μg/ml; for temperature at which activity completely abolished: held 30 min at 35° C.-60° C.; for effect of DTT on activity: pre-incubated 1 hr with 5 mM DTT. How it is done: The optimal biochemical conditions for PlySs1 were determined against live cells of the encoding S. suis strain (7711). For these experiments, activity was gauged through the degree of turbidity reduction (OD600) of an aqueous bacterial suspension following the addition of lysin. The pH-dependence of the enzyme was first addressed using two buffer sets with adjacent pH ranges, citrate/phosphate: 4.6-8.0; and bis-tris-propane (BTP): 7.0-9.7. An extended spectrum of lysis was observed, from 5.4-9.4 (FIG. 11A). In BTP, lysis was maximal from 8.2-9.0; at commensurate pH-values, however, the magnitude of the OD-drop was slightly more pronounced in citrate/phosphate (FIG. 11B).
The thermal stability of PlySs1 was examined by incubating the enzyme at various elevated temperatures prior to use (the OD-drop experiment itself was always conducted at 37° C.). When held at 35° C.-60° C. for 30 min, lysin activity was virtually unaffected until 50° C., at which point it was completely abolished (FIG. 14A). […] The latter corresponds to typical porcine body temperature.

B1: ΔPlySs1: truncated PlySs1 lysin, SEQ ID NO:2, N-terminal 254 amino acids: only N-terminal enzymatic and central binding domains (protein, listed as Streptococcus suis)
chain: MTINLETSIRWMSDRVGKVSYSMDYRNGPNSYDCSSAVYYALMAGGAISAGWAVNTEYMHDWLIRNGYVLVAENKPFNAQRHDVCILGKRGYSSGAGGHVVIFVDNVNVIHCNYARNGISIDNYNQVHRGMYYYLYRPANQPSISNKSLDQLVKETLAGVHGNGDTRKASLGSQYEAVMAVINGKASASEKSDEELAREVLAGKHGAGEDRKRSLGPRYEPVQAKVNELLKAKEKPSETAKNEPQTVQFKEDGDL
Turning to B1, the “activity after 6 hours at 40° C.” value was “maintained essentially native activity”; the “activity after 6 hours at 45° C.” value is given as “some loss of activity, though not complete”; the “pH of maximal activity in bis-tris-propane” value was 9.0; the “temperature at which activity completely abolished” value was “complete loss of activity was observed between the 45 °C and 50 °C samples”. Also, the “effect of DTT on activity” value is listed as “activity was unchanged”. The “effect of NaCl on bacteriolysis” value (0-1000 mM NaCl) is on record as “bacteriolysis varied little”. For the setting “listed as PlySs1”, the “activity after 6 hours at 40° C.” value is given as “unaffected”, the “activity after 6 hours at 45° C.” value is recorded as “partial decrease in activity”, the “pH of maximal activity in bis-tris-propane” value is 8.2-9.0 and the “temperature at which activity completely abolished” value is 50 °C. For the same molecule, under “listed as PlySs1”, the “effect of DTT on activity” value is “did not negatively impact activity”. The “pH spectrum of lysis” value (citrate/phosphate 4.6-8.0 and BTP 7.0-9.7) is on record as 5.4-9.4. Further, the “effect of EDTA on activity” value (excess EDTA) is on record as “did not negatively impact activity”.
